Measurements from publication PMC6005658 (2017).
Where two headings read alike, the source gives them in different places. *1 amine or outer side, *2 acyl side, *3 side chain or, on linkers, in order; H or OH if unused. Bridges are numbered along the chain shown (N, C = ends). [ ]: non-standard residue; d: D form. Tyr(All) = C=CCOc1ccc(C[C@H](N[*:1])C(=O)[*:2])cc1

How the values were obtained:
Test in all cases: radioligand binding
[1] = biological target: T1, arodyn analog 4 (staple 2-3; also: RCM olefin trans)
T1 chain: Ac-F[Tyr(All)][Tyr(All)]RLRRIRPK-NH2

[2] = biological target: T2, arodyn analog 5
T2 chain: Ac-[Tyr(All)]FFRLRRIRPK-NH2

[3] = biological target: T3, arodyn analog 7 (SMILES …)
T3 chain: Ac-FF[Tyr(All)]RLRRIRPK-NH2

[4] = biological target: T4, arodyn analog 3 (staple 1-2; also: RCM olefin trans)
T4 chain: Ac-[Tyr(All)][Tyr(All)]FRLRRIRPK-NH2

[5] = biological target: T5, arodyn analog 6 (SMILES …)
T5 chain: Ac-F[Tyr(All)]FRLRRIRPK-NH2

[6] = biological target: T1, arodyn analog 4
[7] = biological target: T2, arodyn analog 5
[8] = biological target: T3, arodyn analog 7
[9] = biological target: T4, arodyn analog 3
[10] = biological target: T5, arodyn analog 6

| Binder | Ki [1] [nM] | Ki [2] [nM] | Ki [3] [nM] | Ki [4] [nM] | Ki [5] [nM] | Ki [6] [nM] | Ki [7] [nM] | Ki [8] [nM] | Ki [9] [nM] | Ki [10] [nM] |
| --- | --- | --- | --- | --- | --- | --- | --- | --- | --- | --- |
| κ opioid receptor (protein) MESPIQIFRGEPGPTCAPSACLLPNSSSWFPNWAESDSNGSVGSEDQQLEPAHISPAIPVIITAVYSVVFVVGLVGNSLVMFVIIRYTKMKTATNIYIFNLALADALVTTTMPFQSAVYLMNSWPFGDVLCKIVISIDYYNMFTSIFTLTMMSVDRYIAVCHPVKALDFRTPLKAKIINICIWLLASSVGISAIVLGGTKVREDVDVIECSLQFPDDEYSWWDLFMKICVFVFAFVIPVLIIIVCYTLMILRLKSVRLLSGSREKDRNLRRITKLVLVVVAVFIICWTPIHIFILVEALGSTSHSTAVLSSYYFCIALGYTNSSLNPVLYAFLDENFKRCFRDFCFPIKMRMERQSTNRVRNTVQDPASMRDVGGMNKPV | 55.4 | 83.3 | 134 | 71.7 | 66.3 | – | – | – | – | – |
| μ opioid receptor (protein) MDSSTGPGNTSDCSDPLAQASCSPAPGSWLNLSHVDGNQSDPCGLNRTGLGGNDSLCPQTGSPSMVTAITIMALYSIVCVVGLFGNFLVMYVIVRYTKMKTATNIYIFNLALADALATSTLPFQSVNYLMGTWPFGTILCKIVISIDYYNMFTSIFTLCTMSVDRYIAVCHPVKALDFRTPRNAKIVNVCNWILSSAIGLPVMFMATTKYRQGSIDCTLTFSHPTWYWENLLKICVFIFAFIMPVLIITVCYGLMILRLKSVRMLSGSKEKDRNLRRITRMVLVVVAVFIVCWTPIHIYVIIKALITIPETTFQTVSWHFCIALGYTNSCLNPVLYAFLDENFKRCFREFCIPTSSTIEQQNSTRVRQNTREHPSTANTVDRTNHQLENLEAETAPLP | – | – | – | – | – | 903 | 1170 | 1430 | 1920 | 1460 |
